Ratio to parent data for twelve molecules are collected here from PMC9408895.

To fix the notation:
T1: senescence-suppressed protein phosphatase SSPP (His-SSPP)
T1 chain: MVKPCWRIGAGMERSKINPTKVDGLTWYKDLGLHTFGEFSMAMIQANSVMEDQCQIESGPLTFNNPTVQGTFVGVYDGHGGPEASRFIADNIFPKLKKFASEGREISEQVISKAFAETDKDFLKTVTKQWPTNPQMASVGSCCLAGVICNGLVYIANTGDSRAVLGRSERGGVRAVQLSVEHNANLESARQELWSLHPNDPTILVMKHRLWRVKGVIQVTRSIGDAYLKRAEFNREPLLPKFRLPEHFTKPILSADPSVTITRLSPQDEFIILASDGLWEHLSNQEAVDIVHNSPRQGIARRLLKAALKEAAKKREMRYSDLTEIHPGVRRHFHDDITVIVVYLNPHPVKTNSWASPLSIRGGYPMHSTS

B1: GST-AtSARK-CD, cytoplasmic domain of Arabidopsis thaliana senescence-associated receptor-like kinase AtSARK, wild type, Q8VYT3 Y413F (protein)
chain: CWYRKKQRRLLILNLNDKQEEGLQGLGNLRSFTFRELHVYTDGFSSKNILGAGGFGNVYRGKLGDGTMVAVKRLKDINGTSGDSQFRMELEMISLAVHKNLLRLIGYCATSGERLLVYPYMPNGSVASKLKSKPALDWNMRKRIAIGAARGLLFLHEQCDPKIIHRDVKAANILLDECFEAVVGDFGLAKLLNHADSHVTTAVRGTVGHIAPEYLSTGQSSEKTDVFGFGILLLELITGLRALEFGKTVSQKGAMLEWVRKLHEEMKVEELLDRELGTNYDKIEVGEMLQVALLCTQYLPAHRPKMSEVVLMLEGDGLAERWAASHNHSHFYHANISFKTISSLSTTSVSRLDAHCNDPTYQMFGSSAFDDDDDHQPLDSFAMELSGPR
B2: GST-AtSARK-CD, cytoplasmic domain of Arabidopsis thaliana senescence-associated receptor-like kinase AtSARK, wild type, Q8VYT3 S304A (protein)
chain: CWYRKKQRRLLILNLNDKQEEGLQGLGNLRSFTFRELHVYTDGFASKNILGAGGFGNVYRGKLGDGTMVAVKRLKDINGTSGDSQFRMELEMISLAVHKNLLRLIGYCATSGERLLVYPYMPNGSVASKLKSKPALDWNMRKRIAIGAARGLLYLHEQCDPKIIHRDVKAANILLDECFEAVVGDFGLAKLLNHADSHVTTAVRGTVGHIAPEYLSTGQSSEKTDVFGFGILLLELITGLRALEFGKTVSQKGAMLEWVRKLHEEMKVEELLDRELGTNYDKIEVGEMLQVALLCTQYLPAHRPKMSEVVLMLEGDGLAERWAASHNHSHFYHANISFKTISSLSTTSVSRLDAHCNDPTYQMFGSSAFDDDDDHQPLDSFAMELSGPR
B3: GST-AtSARK-CD, cytoplasmic domain of Arabidopsis thaliana senescence-associated receptor-like kinase AtSARK, wild type, Q8VYT3 T465D (protein)
chain: CWYRKKQRRLLILNLNDKQEEGLQGLGNLRSFTFRELHVYTDGFSSKNILGAGGFGNVYRGKLGDGTMVAVKRLKDINGTSGDSQFRMELEMISLAVHKNLLRLIGYCATSGERLLVYPYMPNGSVASKLKSKPALDWNMRKRIAIGAARGLLYLHEQCDPKIIHRDVKAANILLDECFEAVVGDFGLAKLLNHADSHVTTAVRGDVGHIAPEYLSTGQSSEKTDVFGFGILLLELITGLRALEFGKTVSQKGAMLEWVRKLHEEMKVEELLDRELGTNYDKIEVGEMLQVALLCTQYLPAHRPKMSEVVLMLEGDGLAERWAASHNHSHFYHANISFKTISSLSTTSVSRLDAHCNDPTYQMFGSSAFDDDDDHQPLDSFAMELSGPR
B4: GST-AtSARK-CD, cytoplasmic domain of Arabidopsis thaliana senescence-associated receptor-like kinase AtSARK, wild type, Q8VYT3 S384A (protein)
chain: CWYRKKQRRLLILNLNDKQEEGLQGLGNLRSFTFRELHVYTDGFSSKNILGAGGFGNVYRGKLGDGTMVAVKRLKDINGTSGDSQFRMELEMISLAVHKNLLRLIGYCATSGERLLVYPYMPNGAVASKLKSKPALDWNMRKRIAIGAARGLLYLHEQCDPKIIHRDVKAANILLDECFEAVVGDFGLAKLLNHADSHVTTAVRGTVGHIAPEYLSTGQSSEKTDVFGFGILLLELITGLRALEFGKTVSQKGAMLEWVRKLHEEMKVEELLDRELGTNYDKIEVGEMLQVALLCTQYLPAHRPKMSEVVLMLEGDGLAERWAASHNHSHFYHANISFKTISSLSTTSVSRLDAHCNDPTYQMFGSSAFDDDDDHQPLDSFAMELSGPR
B5: GST-AtSARK-CD, cytoplasmic domain of Arabidopsis thaliana senescence-associated receptor-like kinase AtSARK, wild type, Q8VYT3 S384D (protein)
chain: CWYRKKQRRLLILNLNDKQEEGLQGLGNLRSFTFRELHVYTDGFSSKNILGAGGFGNVYRGKLGDGTMVAVKRLKDINGTSGDSQFRMELEMISLAVHKNLLRLIGYCATSGERLLVYPYMPNGDVASKLKSKPALDWNMRKRIAIGAARGLLYLHEQCDPKIIHRDVKAANILLDECFEAVVGDFGLAKLLNHADSHVTTAVRGTVGHIAPEYLSTGQSSEKTDVFGFGILLLELITGLRALEFGKTVSQKGAMLEWVRKLHEEMKVEELLDRELGTNYDKIEVGEMLQVALLCTQYLPAHRPKMSEVVLMLEGDGLAERWAASHNHSHFYHANISFKTISSLSTTSVSRLDAHCNDPTYQMFGSSAFDDDDDHQPLDSFAMELSGPR
B6: GST-AtSARK-CD, cytoplasmic domain of Arabidopsis thaliana senescence-associated receptor-like kinase AtSARK, wild type, Q8VYT3 Y473F (protein)
chain: CWYRKKQRRLLILNLNDKQEEGLQGLGNLRSFTFRELHVYTDGFSSKNILGAGGFGNVYRGKLGDGTMVAVKRLKDINGTSGDSQFRMELEMISLAVHKNLLRLIGYCATSGERLLVYPYMPNGSVASKLKSKPALDWNMRKRIAIGAARGLLYLHEQCDPKIIHRDVKAANILLDECFEAVVGDFGLAKLLNHADSHVTTAVRGTVGHIAPEFLSTGQSSEKTDVFGFGILLLELITGLRALEFGKTVSQKGAMLEWVRKLHEEMKVEELLDRELGTNYDKIEVGEMLQVALLCTQYLPAHRPKMSEVVLMLEGDGLAERWAASHNHSHFYHANISFKTISSLSTTSVSRLDAHCNDPTYQMFGSSAFDDDDDHQPLDSFAMELSGPR
B7: GST-AtSARK-CD, cytoplasmic domain of Arabidopsis thaliana senescence-associated receptor-like kinase AtSARK, wild type, Q8VYT3 T326D (protein)
chain: CWYRKKQRRLLILNLNDKQEEGLQGLGNLRSFTFRELHVYTDGFSSKNILGAGGFGNVYRGKLGDGDMVAVKRLKDINGTSGDSQFRMELEMISLAVHKNLLRLIGYCATSGERLLVYPYMPNGSVASKLKSKPALDWNMRKRIAIGAARGLLYLHEQCDPKIIHRDVKAANILLDECFEAVVGDFGLAKLLNHADSHVTTAVRGTVGHIAPEYLSTGQSSEKTDVFGFGILLLELITGLRALEFGKTVSQKGAMLEWVRKLHEEMKVEELLDRELGTNYDKIEVGEMLQVALLCTQYLPAHRPKMSEVVLMLEGDGLAERWAASHNHSHFYHANISFKTISSLSTTSVSRLDAHCNDPTYQMFGSSAFDDDDDHQPLDSFAMELSGPR
B8: GST-AtSARK-CD, cytoplasmic domain of Arabidopsis thaliana senescence-associated receptor-like kinase AtSARK, wild type, Q8VYT3 T326A (protein)
chain: CWYRKKQRRLLILNLNDKQEEGLQGLGNLRSFTFRELHVYTDGFSSKNILGAGGFGNVYRGKLGDGAMVAVKRLKDINGTSGDSQFRMELEMISLAVHKNLLRLIGYCATSGERLLVYPYMPNGSVASKLKSKPALDWNMRKRIAIGAARGLLYLHEQCDPKIIHRDVKAANILLDECFEAVVGDFGLAKLLNHADSHVTTAVRGTVGHIAPEYLSTGQSSEKTDVFGFGILLLELITGLRALEFGKTVSQKGAMLEWVRKLHEEMKVEELLDRELGTNYDKIEVGEMLQVALLCTQYLPAHRPKMSEVVLMLEGDGLAERWAASHNHSHFYHANISFKTISSLSTTSVSRLDAHCNDPTYQMFGSSAFDDDDDHQPLDSFAMELSGPR
B9: GST-AtSARK-CD, cytoplasmic domain of Arabidopsis thaliana senescence-associated receptor-like kinase AtSARK, wild type, Q8VYT3 Y473E (protein)
chain: CWYRKKQRRLLILNLNDKQEEGLQGLGNLRSFTFRELHVYTDGFSSKNILGAGGFGNVYRGKLGDGTMVAVKRLKDINGTSGDSQFRMELEMISLAVHKNLLRLIGYCATSGERLLVYPYMPNGSVASKLKSKPALDWNMRKRIAIGAARGLLYLHEQCDPKIIHRDVKAANILLDECFEAVVGDFGLAKLLNHADSHVTTAVRGTVGHIAPEELSTGQSSEKTDVFGFGILLLELITGLRALEFGKTVSQKGAMLEWVRKLHEEMKVEELLDRELGTNYDKIEVGEMLQVALLCTQYLPAHRPKMSEVVLMLEGDGLAERWAASHNHSHFYHANISFKTISSLSTTSVSRLDAHCNDPTYQMFGSSAFDDDDDHQPLDSFAMELSGPR
B10: GST-AtSARK-CD, cytoplasmic domain of Arabidopsis thaliana senescence-associated receptor-like kinase AtSARK, wild type, Q8VYT3 T465A (protein)
chain: CWYRKKQRRLLILNLNDKQEEGLQGLGNLRSFTFRELHVYTDGFSSKNILGAGGFGNVYRGKLGDGTMVAVKRLKDINGTSGDSQFRMELEMISLAVHKNLLRLIGYCATSGERLLVYPYMPNGSVASKLKSKPALDWNMRKRIAIGAARGLLYLHEQCDPKIIHRDVKAANILLDECFEAVVGDFGLAKLLNHADSHVTTAVRGAVGHIAPEYLSTGQSSEKTDVFGFGILLLELITGLRALEFGKTVSQKGAMLEWVRKLHEEMKVEELLDRELGTNYDKIEVGEMLQVALLCTQYLPAHRPKMSEVVLMLEGDGLAERWAASHNHSHFYHANISFKTISSLSTTSVSRLDAHCNDPTYQMFGSSAFDDDDDHQPLDSFAMELSGPR
B11: GST-AtSARK-CD, cytoplasmic domain of Arabidopsis thaliana senescence-associated receptor-like kinase AtSARK, wild type, Q8VYT3 S304D (protein)
chain: CWYRKKQRRLLILNLNDKQEEGLQGLGNLRSFTFRELHVYTDGFDSKNILGAGGFGNVYRGKLGDGTMVAVKRLKDINGTSGDSQFRMELEMISLAVHKNLLRLIGYCATSGERLLVYPYMPNGSVASKLKSKPALDWNMRKRIAIGAARGLLYLHEQCDPKIIHRDVKAANILLDECFEAVVGDFGLAKLLNHADSHVTTAVRGTVGHIAPEYLSTGQSSEKTDVFGFGILLLELITGLRALEFGKTVSQKGAMLEWVRKLHEEMKVEELLDRELGTNYDKIEVGEMLQVALLCTQYLPAHRPKMSEVVLMLEGDGLAERWAASHNHSHFYHANISFKTISSLSTTSVSRLDAHCNDPTYQMFGSSAFDDDDDHQPLDSFAMELSGPR
B12: GST-AtSARK-CD, cytoplasmic domain of Arabidopsis thaliana senescence-associated receptor-like kinase AtSARK, wild type, Q8VYT3 Y413E (protein)
chain: CWYRKKQRRLLILNLNDKQEEGLQGLGNLRSFTFRELHVYTDGFSSKNILGAGGFGNVYRGKLGDGTMVAVKRLKDINGTSGDSQFRMELEMISLAVHKNLLRLIGYCATSGERLLVYPYMPNGSVASKLKSKPALDWNMRKRIAIGAARGLLELHEQCDPKIIHRDVKAANILLDECFEAVVGDFGLAKLLNHADSHVTTAVRGTVGHIAPEYLSTGQSSEKTDVFGFGILLLELITGLRALEFGKTVSQKGAMLEWVRKLHEEMKVEELLDRELGTNYDKIEVGEMLQVALLCTQYLPAHRPKMSEVVLMLEGDGLAERWAASHNHSHFYHANISFKTISSLSTTSVSRLDAHCNDPTYQMFGSSAFDDDDDHQPLDSFAMELSGPR

The assay concerns the target T1, senescence-suppressed protein …. Briefly: in vitro pull-down (His-SSPP-bound Ni-NTA beads, anti-GST blot). Particulars: chain shown with the change; 20% pull-down, 10% input loaded; parent: 1.00.
For the molecule B1, the ratio to parent amounted to 1.16.

As for B2, the ratio to parent worked out at 1.08.

On to B3, for which the ratio to parent was determined as 0.88. As for B4, the figure is 0.23. In the case of B5, the ratio to parent worked out at 1.04. Next, B6: 0.96; B7: 0.84. Next, B8: 0.97. Next, B9: 0.98.

With B10, the ratio to parent was 0.9. As for B11, the figure is 0.95. In the case of B12, the ratio to parent is 0.12.
